Assay [1] concerns the target T1, toxin B fragment 4 (receptor-binding domain, amino acids 1777 to 2366 of toxin B) (Clostridium difficile, UniProt P18177 1777-2366).
T1 construct: also called RB domain
Description: Western blotting on E. coli lysates of toxin B fragments. On the technique in general: Immunoblotting shows a protein as a band on a membrane.

For assay [2], the target named is Clostridium difficile toxin B (Clostridium difficile, UniProt P18177 2-2366). Description: cell-based or functional assay.
Assay [3] concerns the target T2, toxin A fragment 4 (receptor-binding domain, amino acids 1853 to 2710 of toxin A) (Clostridium difficile, UniProt P16154 1853-2710).
T2 construct: also called RB domain
Description: Western blotting on E. coli lysates of toxin A fragments.

For assay [4], the target named is T3, Clostridium difficile toxin A (Clostridium difficile, UniProt P16154 1-2710). Description: cell-based or functional assay.
T3 sequence (P16154 whole entry): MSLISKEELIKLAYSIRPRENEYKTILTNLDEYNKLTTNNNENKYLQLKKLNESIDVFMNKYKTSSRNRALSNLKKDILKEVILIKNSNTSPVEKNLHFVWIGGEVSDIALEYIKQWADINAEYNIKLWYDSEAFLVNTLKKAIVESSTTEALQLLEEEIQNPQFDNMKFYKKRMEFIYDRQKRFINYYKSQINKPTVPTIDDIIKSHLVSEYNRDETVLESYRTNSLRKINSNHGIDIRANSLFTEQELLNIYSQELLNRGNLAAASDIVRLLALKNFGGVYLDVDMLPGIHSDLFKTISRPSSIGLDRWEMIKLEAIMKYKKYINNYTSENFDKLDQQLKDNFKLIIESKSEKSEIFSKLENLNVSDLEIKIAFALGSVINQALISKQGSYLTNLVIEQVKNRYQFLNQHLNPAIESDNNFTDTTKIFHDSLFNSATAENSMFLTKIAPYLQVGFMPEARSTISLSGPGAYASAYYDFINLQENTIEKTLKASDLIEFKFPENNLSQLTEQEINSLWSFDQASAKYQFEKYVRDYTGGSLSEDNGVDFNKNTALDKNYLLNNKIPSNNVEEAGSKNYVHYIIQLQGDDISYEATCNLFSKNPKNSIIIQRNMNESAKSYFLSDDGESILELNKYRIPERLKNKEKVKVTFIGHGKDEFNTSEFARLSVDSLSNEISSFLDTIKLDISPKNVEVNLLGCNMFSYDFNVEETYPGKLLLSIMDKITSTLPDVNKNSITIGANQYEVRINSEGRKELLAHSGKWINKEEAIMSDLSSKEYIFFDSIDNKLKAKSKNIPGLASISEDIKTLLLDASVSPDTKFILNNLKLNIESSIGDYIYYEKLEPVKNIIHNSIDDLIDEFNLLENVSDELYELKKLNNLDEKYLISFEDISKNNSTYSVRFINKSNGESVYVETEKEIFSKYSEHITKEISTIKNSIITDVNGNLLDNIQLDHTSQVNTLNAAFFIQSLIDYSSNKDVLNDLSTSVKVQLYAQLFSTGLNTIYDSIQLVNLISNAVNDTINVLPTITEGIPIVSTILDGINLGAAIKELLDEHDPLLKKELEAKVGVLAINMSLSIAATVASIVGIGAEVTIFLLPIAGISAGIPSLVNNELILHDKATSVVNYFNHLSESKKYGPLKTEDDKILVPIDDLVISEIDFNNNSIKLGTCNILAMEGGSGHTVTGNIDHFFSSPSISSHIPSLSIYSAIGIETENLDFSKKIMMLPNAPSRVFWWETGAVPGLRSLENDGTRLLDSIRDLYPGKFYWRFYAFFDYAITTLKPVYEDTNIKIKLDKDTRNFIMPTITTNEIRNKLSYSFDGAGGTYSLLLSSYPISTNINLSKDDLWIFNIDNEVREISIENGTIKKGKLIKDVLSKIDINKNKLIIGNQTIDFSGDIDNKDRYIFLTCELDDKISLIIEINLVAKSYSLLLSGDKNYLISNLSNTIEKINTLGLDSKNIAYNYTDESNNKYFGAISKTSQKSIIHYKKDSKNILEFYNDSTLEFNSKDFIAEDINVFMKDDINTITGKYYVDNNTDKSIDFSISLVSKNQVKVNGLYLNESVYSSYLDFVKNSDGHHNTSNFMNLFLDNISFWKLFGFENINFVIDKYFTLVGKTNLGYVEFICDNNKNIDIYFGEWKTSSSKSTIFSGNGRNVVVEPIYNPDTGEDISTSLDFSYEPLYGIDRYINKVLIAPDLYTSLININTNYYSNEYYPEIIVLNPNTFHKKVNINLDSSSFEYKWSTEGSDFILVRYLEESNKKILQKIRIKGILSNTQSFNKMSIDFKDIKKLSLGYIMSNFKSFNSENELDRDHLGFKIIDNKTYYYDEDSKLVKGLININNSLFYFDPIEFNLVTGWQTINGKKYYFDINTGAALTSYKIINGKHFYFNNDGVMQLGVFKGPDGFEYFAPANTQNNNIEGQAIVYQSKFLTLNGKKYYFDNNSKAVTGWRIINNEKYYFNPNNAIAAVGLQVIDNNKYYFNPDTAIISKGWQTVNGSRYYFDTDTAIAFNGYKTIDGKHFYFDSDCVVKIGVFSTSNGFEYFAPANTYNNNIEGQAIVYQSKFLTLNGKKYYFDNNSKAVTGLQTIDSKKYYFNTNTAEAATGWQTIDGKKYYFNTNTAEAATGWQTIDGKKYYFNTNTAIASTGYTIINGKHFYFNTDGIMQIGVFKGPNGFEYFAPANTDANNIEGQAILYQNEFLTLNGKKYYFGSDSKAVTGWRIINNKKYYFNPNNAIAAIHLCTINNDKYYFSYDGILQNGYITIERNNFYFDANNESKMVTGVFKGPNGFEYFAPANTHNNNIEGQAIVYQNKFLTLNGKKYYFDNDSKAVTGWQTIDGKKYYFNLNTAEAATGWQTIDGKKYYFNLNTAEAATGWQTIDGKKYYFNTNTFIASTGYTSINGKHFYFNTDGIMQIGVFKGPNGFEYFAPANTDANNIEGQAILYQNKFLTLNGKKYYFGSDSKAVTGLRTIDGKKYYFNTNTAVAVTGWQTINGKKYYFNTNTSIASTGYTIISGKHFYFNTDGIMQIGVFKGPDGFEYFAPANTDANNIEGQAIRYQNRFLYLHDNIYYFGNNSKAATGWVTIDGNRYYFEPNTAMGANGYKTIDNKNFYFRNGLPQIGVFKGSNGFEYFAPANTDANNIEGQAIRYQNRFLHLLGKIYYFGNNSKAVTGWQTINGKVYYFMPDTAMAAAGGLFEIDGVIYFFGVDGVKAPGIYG
Assay [5] deals with T3, Clostridium difficile toxin A. Description: SPR, Biacore T200, biotinylated toxin A on sensor chip CAP, antibody flowed. A general note: Surface plasmon resonance follows binding to a sensor surface in real time, without labels.

Where only a bound is given, the exact number is not on record here.

T2 sequence (P16154 1853-2710): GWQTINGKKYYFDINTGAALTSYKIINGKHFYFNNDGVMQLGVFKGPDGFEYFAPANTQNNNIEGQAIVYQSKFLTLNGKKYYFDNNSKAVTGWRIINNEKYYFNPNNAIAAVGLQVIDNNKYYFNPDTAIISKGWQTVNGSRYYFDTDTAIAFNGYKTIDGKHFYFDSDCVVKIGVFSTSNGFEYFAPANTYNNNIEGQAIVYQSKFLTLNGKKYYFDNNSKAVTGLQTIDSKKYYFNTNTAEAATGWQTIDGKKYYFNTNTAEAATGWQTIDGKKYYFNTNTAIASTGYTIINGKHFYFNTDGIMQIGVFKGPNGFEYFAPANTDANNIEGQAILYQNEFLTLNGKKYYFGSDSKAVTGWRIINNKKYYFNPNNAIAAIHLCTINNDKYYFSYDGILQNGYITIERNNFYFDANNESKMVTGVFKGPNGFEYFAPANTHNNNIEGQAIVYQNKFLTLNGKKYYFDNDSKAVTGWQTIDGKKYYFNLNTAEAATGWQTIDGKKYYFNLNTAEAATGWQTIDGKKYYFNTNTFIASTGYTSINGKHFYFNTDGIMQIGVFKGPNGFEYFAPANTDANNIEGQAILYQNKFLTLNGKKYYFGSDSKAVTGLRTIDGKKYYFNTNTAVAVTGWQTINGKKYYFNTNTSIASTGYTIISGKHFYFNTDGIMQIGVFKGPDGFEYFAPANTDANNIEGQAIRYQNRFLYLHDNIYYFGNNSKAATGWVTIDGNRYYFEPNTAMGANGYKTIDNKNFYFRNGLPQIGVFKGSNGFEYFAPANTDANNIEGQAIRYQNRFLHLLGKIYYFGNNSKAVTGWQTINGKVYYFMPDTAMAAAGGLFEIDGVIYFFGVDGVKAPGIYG
T1 sequence (P18177 1777-2366): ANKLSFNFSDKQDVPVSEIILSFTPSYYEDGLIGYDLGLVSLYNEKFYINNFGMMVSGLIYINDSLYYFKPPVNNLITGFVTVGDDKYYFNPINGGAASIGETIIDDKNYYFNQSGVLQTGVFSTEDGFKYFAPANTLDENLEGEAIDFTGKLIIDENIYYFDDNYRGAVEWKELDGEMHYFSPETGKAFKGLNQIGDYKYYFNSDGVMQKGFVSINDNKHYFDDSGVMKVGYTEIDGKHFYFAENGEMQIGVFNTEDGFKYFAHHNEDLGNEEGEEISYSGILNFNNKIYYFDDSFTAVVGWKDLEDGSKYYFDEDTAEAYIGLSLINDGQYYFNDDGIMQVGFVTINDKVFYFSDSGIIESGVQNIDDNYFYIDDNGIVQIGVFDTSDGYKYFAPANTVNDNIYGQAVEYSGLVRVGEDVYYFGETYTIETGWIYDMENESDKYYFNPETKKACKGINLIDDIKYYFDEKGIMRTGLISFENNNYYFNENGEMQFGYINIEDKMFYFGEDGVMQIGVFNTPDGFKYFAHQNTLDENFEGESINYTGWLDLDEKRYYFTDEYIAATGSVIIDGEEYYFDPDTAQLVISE

B1: EV029104 (antibody, human IgG1, lambda, V domains shown)
VH: EVQLVESGGGLVQPGGSLRLSCAASGLTINSYWMNWVRQIPGKGLEWVANINPTGSQQYYVDSVRGRFTISRDDAKKSLFLQLDSLRVEDTAVYYCARGRRGNSAYCDSWGQGTQVTVSS
VL: QSALTQPRSVSGSPGQSVTISCTGTSSDIGAYDYVSWYRHHPGKAPKLIIFDVAKWPSGVPDRFSGSKSGNTASLTISGLQDDDEGDYYCCSYAGRFSLIFGGGTKLTVLG
notes: also called anti-toxin B antibody EV029104
As to B1, the binding result in assay [1] is given as “binds”. Further, the “neutralizing activity (EC50 value), rounding of toxin B-exposed IMR-90 cells” value in assay [2] was at most 100 ng/mL.

B2: EV029105a (antibody, human IgG1, kappa, V domains shown)
VH: QVQLVQSGAEVKKPGSSVKVSCKASGDTFSSHAITWVRQAPGQGLEWMGRIIPIFSISDYAQKFQGRVTFTADKSTSIAFMELSSLRSQDTAVYYCARSLLAYCTGGSCSEFGAEDHWGQGTLVTVSS
VL: EIVLTQSPGTLSLSPGERATLSCRASQSVSSNYLAWYQQKPGQAPRLLIFGASSRATGIPDRFSGSGSGTDFTLTISRLEPEDFAVYYCQQYGSSIPVTFGQGTKVEIKR
notes: also called anti-toxin A antibody EV029105a
As for B2, the binding result in assay [3] is on record as “binds”. In addition, in assay [4], the “EC50 (ng/mL), neutralizing activity against the cytotoxicity of toxin A to IMR-90 cells (cell rounding)” value is 4.92 ng/mL and the “EC50, neutralizing activity against the cytotoxicity of toxin A to IMR-90 cells (cell rounding)” value turned out to be 33 pM. In assay [5], the Kd (in general, the free concentration of one partner at which half of the binding sites on the other are occupied at equilibrium, for simple one-to-one binding) was found to be 151 pM; the koff (in general, the first-order rate constant of dissociation) came to 9.89e-05 s⁻¹; the kon (as a rule, a measure of how fast the partners come together) turned out to be 653000 M⁻¹ s⁻¹.

For the origin of these results see patent US20150259402A1 (EVEC, published 2015).
